Results on three molecules are retold here after US10907134B2, “Mutated genes for the catalytic protein of oplophorus luciferase and use thereof” (JNC CORPORATION, priority 2013, dated 2021).

One assay deals with CHO-K1 cells. The experiment in a line: Luminescence activity of KAZ mutants expressed in animal culture cells with signal peptide of Gaussia luciferase for secretion. It counts as cell-based, Chinese hamster. As to conditions: Table 5, pcDNA3-GLsp- vectors, CHO-K1, 48 hours, 0.5 μg coelenterazine; for Relative Luminescence Activity (Imax) (%) Cell Extracts: 5 μL cell extracts; for Relative Luminescence Activity (Imax) (%) Culture Medium: 5 μL culture medium. As to the method:
Chinese hamster ovary cell line CHO-K1 was cultured in Ham's F-12 medium (manufactured by Wako Pure Chemical Industries, Ltd.) supplemented with 10% (v/v) fetal bovine serum (manufactured by Biowest Inc.). The CHO-K1 cells were plated in a 6-well plate in 1×10^5 cells/well/2 mL medium (n=2) and cultured in an incubator at 37° C. in 5% (v/v) CO2. After 24 hours, the purified recombinant plasmid was transfected to CHO-K1 cells using a FuGene HD transfection kit (manufactured by Promega Corp.), which was provided for subsequent experiment. Specifically, 1 μg of the recombinant plasmid pGL4.13 [Luc2/sv40], 0.1 μg of the internal standard vector and 3 μL of FuGene HD were added to 100 μL of the medium, which was allowed to stand at room temperature for 15 minutes. Subsequently, 100 μL of the DNA-FuGene complex was added to the cells in the 6 wells. After incubation for 48 hours, the culture medium was collected. On the other hand, the KAZ mutants expressed in the cells were washed 3 times with 3 mL of 1×PBS, then suspended in 1 mL of 1×PBS and disrupted on ice by ultrasonication, which was used as enzyme solutions of the cell-extracts of KAZ mutants.
A luminescence reaction was started by adding 5 μL of the culture media and cell extracts obtained in EXAMPLE 10 to 100 μL of 30 mM Tris-HCl (pH 7.6)-10 mM EDTA (manufactured by Wako Pure Chemical Industries, Ltd.) containing 0.5 μg of coelenterazine (manufactured by INC Corp.). The luminescence activity was determined using a luminometer (manufactured by Atto Inc.: AB2200) for 60 seconds, and the maximum intensity of luminescence (Imax) was defined as a percentage.
Culture media of the KAZ mutants with two amino acid substitutions and KAZ mutants with three amino acid substitutions and the enzyme solutions of the cell-extracts of KAZ mutants were prepared in the same manner as EXAMPLE 10.
In the resultant enzyme solutions and the enzyme solutions of the cell-extracts of KAZ mutants, luminescence activities were determined in the same manner as EXAMPLE 11.

The nature of assay [1]: Luminescence activity of KAZ mutants (pCold II, E. coli) in supernatant and precipitate of crude enzyme solution. It is filed as biochemical. As to conditions: Table 3, pCold II, E. coli BL21, 0.5 μg coelenterazine, 60 seconds; for Relative Luminescence Activity (Imax) Precipitate: 5 μL precipitate; for Relative Luminescence Activity (Imax) Supernatant: 5 μL supernatant. The protocol:
In order to express the KAZ mutants in E. coli, the recombinant plasmid prepared in EXAMPLE 3 was used. The E. coli BL21 strain (Novagen, Madison, Wis.) was used as a host cell. The BL21 strain carrying the recombinant plasmid was incubated in 5 mL of Luria-Bertani medium (hereinafter designated as LB medium) containing ampicillin (50 μg/mL) at 37° C. for 18 hours. This seed culture, 0.1 mL, was inoculated to 10 mL of LB medium and incubated for 3 hours, followed by cooling in an ice-water bath for 1 hour. IPTG was added to the culture medium at a final concentration of 1 mM, followed by incubation at 15° C. for further 20 hours. After completion of the incubation, 1 mL of the cultured medium was harvested by centrifugation at 10,000 rpm for 2 minutes. The thus collected E. coli cells were suspended in 0.5 mL of 30 mM Tris-HCl (pH 7.6)-10 mM EDTA (manufactured by Wako Pure Chemical Industries, Ltd.) (hereinafter designated as TE). The E. coli cells were disrupted by sonication for 3 seconds using a Branson Model 250 Sonifier (Danbury, Conn.) to give a crude enzyme solution. After 0.5 mL of the crude enzyme solution was further centrifuged at 10,000 rpm for 2 minutes to separate the supernatant from the precipitate, the precipitate was suspended in 0.5 mL of TE. Then 20 μL each of the supernatant and precipitate were analyzed by SDS-PAGE to confirm the presence or absence of soluble and insoluble proteins. The results are shown in FIG. 1, wherein M and 1 to 17 denote: M: molecular weight size markers; 1: KAZ; 2 KAZ-A4E; 3: KAZ-Q11R; 4: KAZ-Q18L; 5: KAZ-L27V; 6: KAZ-A33N; 7: KAZ-K43R; 8: KAZ-V44I; 9: KAZ-A54I; 10: KAZ-F68D; 11: KAZ-L72Q; 12: KAZ-M75K; 13: KAZ-I90V; 14: KAZ-P115E; 15: KAZ-Q124K; 16: KAZ-Y138I; 17: KAZ-N166R and 18: dnKAZ.
A luminescence reaction was started by the addition of 5 μL each of the supernatant and precipitate obtained in EXAMPLE 4 to 100 μL of TE containing 0.5 μg of coelenterazine (manufactured by JNC Corp.). The luminescence activity was measured for 60 seconds using a luminometer (manufactured by Atto Corp.: AB2200) and expressed in terms of relative luminescence activity (Imax).
To express the KAZ mutants with two amino acid substitutions and three amino acid substitutions in E. coli using a pCold II vector, the recombinant plasmid constructed in EXAMPLE 13 and pCold-V44I-KAZ, pCold-A54I-KAZ, pCold-Y138I-KAZ prepared in EXAMPLE 3 were used. The supernatant and precipitate of each crude enzyme solution were prepared in the same manner as EXAMPLE 4, using the E. coli BL21 starin (Novagen, Madison, Wis.) as a host cell. The supernatant and precipitate, 20 μL each, were subjected to SDS-PAGE analysis to confirm the presence or absence of soluble proteins and insoluble proteins. In FIG. 3, M and 1 to 9 are as follows. M: molecular weight markers; 1: dnKAZ; 2: KAZ; 3: KAZ-V44I-A54I; 4: KAZ-V44I-Y138I; 5: KAZ-A54I-Y138I; 6: KAZ-V44I-A54I-Y138I; 7: KAZ-V44I; 8: KAZ-A54I; and 9: KAZ-Y138I.
The luminescence activities of 5 μL each of the supernatant and precipitate obtained in EXAMPLE 14 were determined in the same manner as EXAMPLE 5. The luminescence activity was assayed with a luminometer (manufactured by Atto Inc.: AB2200) for 60 seconds, and the maximum intensity of luminescence (Imax) was shown as relative luminescence activity.

The nature of assay [2]: Luminescence activity of ZZ-fused KAZ mutants in crude enzyme solutions. It is filed as biochemical. As to conditions: Table 4; ZZ-fused (pCold-ZZ-P-); 1 μL crude enzyme solution, 1 mM DTT; 1 μg coelenterazine. As to the method: To express the ZZ-fused KAZ mutants in E. coli, the recombinant plasmid prepared in EXAMPLE 6 was used. Crude enzyme solutions were prepared in the same manner as EXAMPLE 4 using the E. coli BL21 strain (Novagen, Madison, Wis.) as a host cell. The resultant crude enzyme solution, 5 μL, was subjected to SDS-PAGE analysis to confirm expression of the proteins (FIG. 2). In FIG. 2, M and 1 to 18 are the same as described in FIG. 1.
DTT was added to the crude enzyme solution obtained in EXAMPLE 7 at a final concentration of 1 mM and the mixture was allowed to stand in an ice water for more than 5 hours. A luminescence reaction was started by adding 1 μL of the crude enzyme solution to 100 μL of TE containing 1 μg of coelenterazine (manufactured by JNC Corp.). The luminescence activity was determined using a luminometer (manufactured by Atto Inc.: AB2200) for 60 seconds, and the maximum intensity of luminescence (Imax) was shown as relative luminescence activity.
To express the ZZ-fused KAZ mutants in E. coli, the recombinant plasmid constructed in EXAMPLE 16 and pCold-ZZ-P-V44I-KAZ, pCold-ZZ-P-A54I-KAZ, pCold-ZZ-P-Y138I-KAZ prepared in EXAMPLE 6 were used. Crude enzyme solutions were prepared in the same manner as EXAMPLE 7, using the E. coli BL21 strain (Novagen, Madison, Wis.) as a host cell. DTT was added to the crude enzyme solutions at a final concentration of 1 mM. The mixtures were allowed to stand over 5 hours on ice, and luminescence activities were then assayed. The luminescence activities were determined by the method described in EXAMPLE 8. Also, 5 μL of the resultant crude enzyme solutions were subjected to SDS-PAGE analysis to confirm protein expression (FIG. 4). In FIG. 4, M and 1 to 9 are as follows. M: molecular weight size markers; 1: ZZ-P-KAZ; 2: ZZ-P-KAZ-V44I; 3: ZZ-P-KAZ-A54I; 4: ZZ-P-KAZ-Y138I; 5: ZZ-P-KAZ-V44I-A54I; 6: ZZ-P-KAZ-V44I-Y138I; 7: ZZ-P-KAZ-A54I-Y138I; 8: ZZ-P-KAZ-V44I-A54I-Y138I; and 9: ZZ-P-dnKAZ.

B1: KAZ-Q124K: KAZ with single amino acid substitution Q124K (protein)
chain: FTLADFVGDWQQTAGYNQDQVLEQGGLSSLFQALGVSVTPIQKVVLSGENGLKADIHVIIPYEGLSGFQMGLIEMIFKVVYPVDDHHFKIILHYGTLVIDGVTPNMIDYFGRPYPGIAVFDGKKITVTGTLWNGNKIYDERLINPDGSLLFRVTINGVTGWRLCENILA
With B1, in the assay with CHO-K1 cells, the “Relative Luminescence Activity (Imax) (%) Cell Extracts” value was found to be 0.3% and the “Relative Luminescence Activity (Imax) (%) Culture Medium” value is reported as “less than 0.01%”. In assay [1], the “Relative Luminescence Activity (Imax) Precipitate” value is given as 0.8 and the “Relative Luminescence Activity (Imax) Supernatant” value worked out at 7.4. In addition, the “Relative Luminescence Activity (Imax)” value in assay [2] amounted to 3.7.

B2: KAZ-N166R: KAZ with single amino acid substitution N166R (protein)
chain: FTLADFVGDWQQTAGYNQDQVLEQGGLSSLFQALGVSVTPIQKVVLSGENGLKADIHVIIPYEGLSGFQMGLIEMIFKVVYPVDDHHFKIILHYGTLVIDGVTPNMIDYFGRPYPGIAVFDGKQITVTGTLWNGNKIYDERLINPDGSLLFRVTINGVTGWRLCERILA
For the molecule B2, in the assay with CHO-K1 cells, the “Relative Luminescence Activity (Imax) (%) Cell Extracts” value worked out at 0.2% and the “Relative Luminescence Activity (Imax) (%) Culture Medium” value is given as “less than 0.01%”. In assay [1], the “Relative Luminescence Activity (Imax) Precipitate” value was 0.8 and the “Relative Luminescence Activity (Imax) Supernatant” value worked out at 4.7. Further, the “Relative Luminescence Activity (Imax)” value in assay [2] is 3.6.

B3: KAZ-A4E: KAZ with single amino acid substitution A4E (protein)
chain: FTLEDFVGDWQQTAGYNQDQVLEQGGLSSLFQALGVSVTPIQKVVLSGENGLKADIHVIIPYEGLSGFQMGLIEMIFKVVYPVDDHHFKIILHYGTLVIDGVTPNMIDYFGRPYPGIAVFDGKQITVTGTLWNGNKIYDERLINPDGSLLFRVTINGVTGWRLCENILA
For the molecule B3, in the assay on CHO-K1 cells, the “Relative Luminescence Activity (Imax) (%) Cell Extracts” value is recorded as 0.1% and the “Relative Luminescence Activity (Imax) (%) Culture Medium” value is on record as “less than 0.01%”. Also, in assay [1], the “Relative Luminescence Activity (Imax) Precipitate” value is reported as 0.2 and the “Relative Luminescence Activity (Imax) Supernatant” value is on record as 1.5. Also, in assay [2], the “Relative Luminescence Activity (Imax)” value turned out to be 0.5.
